# Measurements as given in patent US20070128627A1 (US Dept. of Health and Human Services, published 2007).
# T1: STAMP C-terminal fragment (834C), in vitro translated (human, UniProt Q6EMB2 838-1281, [35S]methionine labeled)
# T1 sequence: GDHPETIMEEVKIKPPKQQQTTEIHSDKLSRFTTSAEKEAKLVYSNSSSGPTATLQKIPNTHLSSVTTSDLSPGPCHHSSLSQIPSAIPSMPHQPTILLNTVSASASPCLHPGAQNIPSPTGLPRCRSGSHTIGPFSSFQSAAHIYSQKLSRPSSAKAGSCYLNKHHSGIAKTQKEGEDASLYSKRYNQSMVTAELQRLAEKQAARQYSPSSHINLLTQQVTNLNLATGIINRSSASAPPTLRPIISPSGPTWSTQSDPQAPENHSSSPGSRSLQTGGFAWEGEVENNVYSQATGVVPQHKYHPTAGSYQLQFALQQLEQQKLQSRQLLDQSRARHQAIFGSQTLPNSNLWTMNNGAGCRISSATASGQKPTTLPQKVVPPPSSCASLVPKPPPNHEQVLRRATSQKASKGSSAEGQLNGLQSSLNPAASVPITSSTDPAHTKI
# T2: STAMP amino terminal fragment (N623), in vitro translated (human, UniProt Q6EMB2 5-627, [35S]methionine labeled)
# T2 sequence: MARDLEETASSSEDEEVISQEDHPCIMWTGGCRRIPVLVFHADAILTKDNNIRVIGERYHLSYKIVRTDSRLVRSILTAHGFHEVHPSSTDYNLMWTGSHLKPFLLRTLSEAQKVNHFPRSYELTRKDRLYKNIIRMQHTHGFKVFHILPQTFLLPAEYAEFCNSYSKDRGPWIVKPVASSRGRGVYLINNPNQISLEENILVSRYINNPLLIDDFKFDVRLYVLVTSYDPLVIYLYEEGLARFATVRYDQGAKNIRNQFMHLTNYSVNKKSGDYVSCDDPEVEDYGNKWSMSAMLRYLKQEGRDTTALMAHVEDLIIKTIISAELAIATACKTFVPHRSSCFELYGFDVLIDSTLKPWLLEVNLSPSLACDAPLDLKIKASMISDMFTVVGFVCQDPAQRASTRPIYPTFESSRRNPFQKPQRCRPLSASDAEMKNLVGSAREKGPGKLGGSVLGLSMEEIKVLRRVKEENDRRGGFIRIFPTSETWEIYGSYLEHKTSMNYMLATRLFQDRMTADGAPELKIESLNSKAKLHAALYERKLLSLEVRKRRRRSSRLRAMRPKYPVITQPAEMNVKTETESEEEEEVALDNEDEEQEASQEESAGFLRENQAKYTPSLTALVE
# Experiments:
# GAL/STAMP(834C) = target: T3, GAL/STAMP(834C) (human, UniProt P04386 1-147 (Saccharomyces cerevisiae entry)); test: mammalian two-hybrid (data not shown)
# T3 construct: domain: GAL-DBD; Mammalian two-hybrid construct; also called GAL fused to STAMP834C
# GAL/STAMP(623-834) = target: T4, GAL/STAMP(623-834) (human); test: mammalian two-hybrid in CV-1 cells
# T4 construct: domain: GAL-DBD; Expressed in CV-1 cells for the mammalian two-hybrid assay; also called Gal/6-6CL1
# [1] = target: T1, STAMP C-terminal fragment (834C), in …; test: GST pulldown, autoradiography (FIG. 7A)
# Description: (§1) The mixture was centrifuged (12,000×g), the supernatant was discarded, and the pellet was washed with phosphate-buffered saline (3×1 ml). Each 20-μl sample of immobilized GST or GST-chimera was then incubated overnight with 10 μl of ³⁵S-labeled in vitro translation product. The matrix was washed with phosphate-buffered saline (4×1 ml). The immobilized proteins were removed from the beads by heating at 90° C. for 5 min in 20 μl of 2×SDS loading buffer. The proteins were separated on 8-10% SDS-PAGE gels and detected by radio-autoradiography.
# [2] = target: T2, STAMP amino terminal fragment (N623), …; test: GST pulldown, autoradiography (FIG. 7A)
# Description: as §1
# [3] = target: transcription intermediary factor-2 (TIF2), full length (human, UniProt Q15596 1-1464); test: cell-based or functional assay
# GAL/STAMP(N834) = target: T5, GAL/STAMP(N834) (human); test: mammalian two-hybrid ±1 µM Dex (FIG. 6B)
# T5 construct: domain: GAL-DBD; Mammalian two-hybrid construct; also called GAL/N834
binder,measurement,setting,value
"GR N-terminal half (N523) (receptor, UniProt P06536 1-523, looked up, not shown: large carriers, domain: N-terminal half (N523)) MDSKESLAPPGRDEVPGSLLGQGRGSVMDFYKSLRGGATVKVSASSPSVAAASQADSKQQRILLDFSKGSTSNVQQRQQQQQQQQQQQQQQQQQQQPDLSKAVSLSMGLYMGETETKVMGNDLGYPQQGQLGLSSGETDFRLLEESIANLNRSTSVPENPKSSTSATGCATPTEKEFPKTHSDASSEQQNRKSQTGTNGGSVKLYPTDQSTFDLLKDLEFSAGSPSKDTNESPWRSDLLIDENLLSPLAGEDDPFLLEGNTNEDCKPLILPDTKPKIKDTGDTILSSPSSVALPQVKTEKDDFIELCTPGVIKQEKLGPVYCQASFSGTNIIGNKMSAISVHGVSTSGGQMYHYDMNTASLSQQQDQKPVFNVIPPIPVGSENWNRCQGSGEDSLTSLGALNFPGRSVFSNGYSSPGMRPDVSSPPSSSSAATGPPPKLCLVCSDEASGCHYGVLTCGSCKVFFKRAVEGQHNYLCAGRNDCIIDKIRRKNCPACRYRKCLQAGMNLEARKTKKKIKGIQQAT",binding result,GAL/STAMP(834C),no binding
VP16/TIF2(1140C) (other) QAQMAQGSYSPMQDPNFHTMGQRPSYATLRMQPRPGLRPTGLVQNQPNQLRLQLQHRLQAQQNRQPLMNQISNVSNVNLTLRPGVPTQAPINAQMLAQRQREILNQHLRQRQMHQQQQVQQRTLMMRGQGLNMTPSMVAPSGMPATMSNPRIPQANAQQFPFPPNYGISQQPDPGFTGATTPQSPLMSPRMAHTQSPMMQQSQANPAYQAPSDINGWAQGNMGGNSMFSQQSPPHFGQQANTSMYSNNMNINVSMATNTGGMSSMNQMTGQISMTSVTSVPTSGLSSMGPEQVNDPALRGGNLFPNQLPGMDMIKQEGDTTRKYC,binding result,GAL/STAMP(623-834),no binding
"GST/TIF2.4 (other, Bacterially expressed, immobilized on glutathione-Sepharose beads; The text gives no limits for TIF2.4, so the whole TIF2 entry is named; not shown: glutathione S-transferase (GST) of a pGEX plasmid) ERADGQSRLHDSKGQTKLLQLLTTKSDQMEPSPLASSLSDTNKDSTGSLPGSGSTHGTSLKEKHKILHRLLQDSSSPVDLAKLTAEATGKDLSQESSSTAPGSEVTIKQEPVSPKKKENALLRYLLDKDDTKDIGLPEITPKLERLDSKTDPASNTKLIAMKTEKEEMSFEPGDQPGSELDNLEEILDDLQNSQLPQLFPDTRPGAPAGSVDKQAIINDLMQLTAENSPVTPVGAQKTALRISQSTFNNPRPGQLGRLLPNQNLPLDITLQSPTGAGPFPPIRNSSPYSVIPQPGMMGNQGMIGNQGNLGNSSTGMIGNSASRPTMPSGEWAPQSSAVRVTCAATTSAMNRPVQGGMIRNPAASIPMRPSSQPGQRQTLQSQVMNIG",binding result,[1],no binding
same,binding result,[2],no binding
"GR C-terminal half (407C) (receptor, UniProt P06536 407-795, looked up, not shown: large carriers, also called GR407C) SVFSNGYSSPGMRPDVSSPPSSSSAATGPPPKLCLVCSDEASGCHYGVLTCGSCKVFFKRAVEGQHNYLCAGRNDCIIDKIRRKNCPACRYRKCLQAGMNLEARKTKKKIKGIQQATAGVSQDTSENPNKTIVPAALPQLTPTLVSLLEVIEPEVLYAGYDSSVPDSAWRIMTTLNMLGGRQVIAAVKWAKAILGLRNLHLDDQMTLLQYSWMFLMAFALGWRSYRQSSGNLLCFAPDLIINEQRMSLPCMYDQCKHMLFVSSELQRLQVSYEEYLCMKTLLLLSSVPKEGLKSQELFDEIRMTYIKELGKAIVKREGNSSQNWQRFYQLTKLLDSMHEVVENLLTYCFQTFLDKTMSIEFPEMLAEIITNQIPKYSNGNIKKLLFHQK",binding result,GAL/STAMP(834C),no binding
full length STAMP (SRC-1 and TIF2 Associated Modulatory Protein) (other) MARDLEETASSSEDEEVISQEDHPCIMWTGGCRRIPVLVFHADAILTKDNNIRVIGERYHLSYKIVRTDSRLVRSILTAHGFHEVHPSSTDYNLMWTGSHLKPFLLRTLSEAQKVNHFPRSYELTRKDRLYKNIIRMQHTHGFKVFHILPQTFLLPAEYAEFCNSYSKDRGPWIVKPVASSRGRGVYLINNPNQISLEENILVSRYINNPLLIDDFKFDVRLYVLVTSYDPLVIYLYEEGLARFATVRYDQGAKNIRNQFMHLTNYSVNKKSGDYVSCDDPEVEDYGNKWSMSAMLRYLKQEGRDTTALMAHVEDLIIKTIISAELAIATACKTFVPHRSSCFELYGFDVLIDSTLKPWLLEVNLSPSLACDAPLDLKIKASMISDMFTVVGFVCQDPAQRASTRPIYPTFESSRRNPFQKPQRCRPLSASDAEMKNLVGSAREKGPGKLGGSVLGLSMEEIKVLRRVKEENDRRGGFIRIFPTSETWEIYGSYLEHKTSMNYMLATRLFQDRMTADGAPELKIESLNSKAKLHAALYERKLLSLEVRKRRRRSSRLRAMRPKYPVITQPAEMNVKTETESEEEEEVALDNEDEEQEASQEESAGFLRENQAKYTPSLTALVENTPKENSMKVREWNNKGGHCCKLETQELEPKFNLMQILQDNGNLSKMQARIAFSAYLQHVQIRLMKDSGGQTFSASWAAKEDEQMELVVRFLKRASNNLQHSLRMVLPSRRLALLERRRILAHQLGDFIIVYNKETEQMAEKKSKKKVEEEEEDGVNMENFQEFIRQASEAELEEVLTFYTQKNKSASVFLGTHSKISKNNNNYSDSGAKGDHPETIMEEVKIKPPKQQQTTEIHSDKLSRFTTSAEKEAKLVYSNSSSGPTATLQKIPNTHLSSVTTSDLSPGPCHHSSLSQIPSAIPSMPHQPTILLNTVSASASPCLHPGAQNIPSPTGLPRCRSGSHTIGPFSSFQSAAHIYSQKLSRPSSAKAGSCYLNKHHSGIAKTQKEGEDASLYSKRYNQSMVTAELQRLAEKQAARQYSPSSHINLLTQQVTNLNLATGIINRSSASAPPTLRPIISPSGPTWSTQSDPQAPENHSSSPGSRSLQTGGFAWEGEVENNVYSQATGVVPQHKYHPTAGSYQLQFALQQLEQQKLQSRQLLDQSRARHQAIFGSQTLPNSNLWTMNNGAGCRISSATASGQKPTTLPQKVVPPPSSCASLVPKPPPNHEQVLRRATSQKASKGSSAEGQLNGLQSSLNPAASVPITSSTDPAHTKI,"fold repression by Dex of the PMA-induced AP-1/Luc reporter in U2OS.rGR cells (STAMP added, no TIF2 added)",[3],16 fold
same,fold repression by Dex of the PMA-induced AP-1/Luc reporter in U2OS.rGR cells (STAMP plus TIF2 added),[3],~31 fold
"VP16/GR (receptor, Assayed with and without 1 µM Dex) MDSKESLAPPGRDEVPGSLLGQGRGSVMDFYKSLRGGATVKVSASSPSVAAASQADSKQQRILLDFSKGSTSNVQQRQQQQQQQQQQQQQQQQQQQPDLSKAVSLSMGLYMGETETKVMGNDLGYPQQGQLGLSSGETDFRLLEESIANLNRSTSVPENPKSSTSATGCATPTEKEFPKTHSDASSEQQNRKSQTGTNGGSVKLYPTDQSTFDLLKDLEFSAGSPSKDTNESPWRSDLLIDENLLSPLAGEDDPFLLEGNTNEDCKPLILPDTKPKIKDTGDTILSSPSSVALPQVKTEKDDFIELCTPGVIKQEKLGPVYCQASFSGTNIIGNKMSAISVHGVSTSGGQMYHYDMNTASLSQQQDQKPVFNVIPPIPVGSENWNRCQGSGEDSLTSLGALNFPGRSVFSNGYSSPGMRPDVSSPPSSSSAATGPPPKLCLVCSDEASGCHYGVLTCGSCKVFFKRAVEGQHNYLCAGRNDCIIDKIRRKNCPACRYRKCLQAGMNLEARKTKKKIKGIQQATAGVSQDTSENPNKTIVPAALPQLTPTLVSLLEVIEPEVLYAGYDSSVPDSAWRIMTTLNMLGGRQVIAAVKWAKAILGLRNLHLDDQMTLLQYSWMFLMAFALGWRSYRQSSGNLLCFAPDLIINEQRMSLPCMYDQCKHMLFVSSELQRLQVSYEEYLCMKTLLLLSSVPKEGLKSQELFDEIRMTYIKELGKAIVKREGNSSQNWQRFYQLTKLLDSMHEVVENLLTYCFQTFLDKTMSIEFPEMLAEIITNQIPKYSNGNIKKLLFHQK",binding result,GAL/STAMP(N834),no binding
